Data: patent publication US20250206818A1 (AGENUS, published 2025)
Positions count from the first letter of the chain named. In names and notes the source's numbering stands. Blank lines part the entries; values can stand above or below the binder they belong to.

Columns and labels:
recombinant human LAG-3 = molecular target: T1, recombinant human LAG-3 (human, UniProt P18627 23-450, limits assumed); assay: surface plasmon resonance (data not shown)
T1 sequence (looked up): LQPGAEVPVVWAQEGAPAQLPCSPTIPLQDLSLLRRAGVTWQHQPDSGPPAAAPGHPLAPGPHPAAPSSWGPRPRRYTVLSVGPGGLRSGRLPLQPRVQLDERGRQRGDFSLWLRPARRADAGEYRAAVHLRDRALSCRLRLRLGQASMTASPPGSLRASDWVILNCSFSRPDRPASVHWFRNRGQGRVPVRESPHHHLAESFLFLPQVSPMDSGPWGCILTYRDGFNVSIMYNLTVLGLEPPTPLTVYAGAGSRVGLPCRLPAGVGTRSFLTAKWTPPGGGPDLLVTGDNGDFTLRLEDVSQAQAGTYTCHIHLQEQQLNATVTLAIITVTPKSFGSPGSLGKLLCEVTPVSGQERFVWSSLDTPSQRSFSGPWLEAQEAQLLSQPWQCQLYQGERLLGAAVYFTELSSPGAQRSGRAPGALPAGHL

human LAG-3 = molecular target: T2, human LAG-3 (human, UniProt P18627 23-450, limits assumed); assay: Fab phage display selection; periplasmic extracts screened by ELISA or flow cytometry
T2 construct: Selections used human LAG-3-Fc, human LAG-3-6His, a 30 aa LAG-3 peptide and/or cells with cynomolgus LAG-3; also called CD223
T2 sequence (looked up): T1 sequence (looked up)
Source text: Anti-LAG-3 antibodies were identified by generation and selection of an immunized Fab phage display library. […] Per mouse, a Fab library was then generated by random-primed cDNA using total RNA as a template to amplify variable regions from mouse antibody genes. Heavy and kappa chain amplicons were combined and cloned into phagemid vectors. […] The 30 amino acid human LAG-3 peptide is a biotinylated peptide comprising the amino acid sequence of […] (SEQ ID NO: 199). Periplasmic extracts of selected Fab clones were then screened by ELISA or flow cytometry. Antibody sequencing and off-rate analysis were then performed on anti-LAG-3 Fabs.

B1: P13B02-12 (antibody, IgG1, V domains shown)
VH: QVQLVQSGAEVKKPGASVKVSCKASGFNIKDTYIHWVRQAPGQGLEWMGEIDPANDNTKYDPKFQGRVTITADTSSNTVYMELSSLRSEDTAVYYCATYYYRYDVGGFDYWGQGTLVTVSS
VL: EIVLTQSPGTLSLSPGERATLSCSVSSSISSSNLHWYQQKPGQAPRLLIYGTSNLASGIPDRFSGSGSGTSYTLTISRLEPEDFAVYYCQQWSSYPFTFGQGTKVEIK
notes: Humanized; generated as full length IgG1
binding result (recombinant human LAG-3): binds

B2: P13B02-21 (antibody, IgG1, V domains shown)
VH: B1 VH with L4M, V5K, K12V, K23T, M48I, M81L, E82Q
VL: B1 VL with S71D, Y72F
notes: as for B1
binding result (recombinant human LAG-3): binds

B3: P13B02-17 (antibody, IgG1, V domains shown)
VH: B1 VH with L4M, V5K, K23T
VL: B1 VL
notes: as for B1
binding result (recombinant human LAG-3): binds

B4: P13B02-08 (antibody, IgG1, V domains shown)
VH: B1 VH with S76T, N77S
VL: B1 VL with V3L, Y37F
notes: as for B1
binding result (recombinant human LAG-3): binds

B6: P13B02-29 (antibody, IgG1, V domains shown)
VH: B1 VH with K23T, S76T, N77S, R102K
VL: B1 VL with S71D, Y72F
notes: as for B1
binding result (recombinant human LAG-3): binds

B11: P13B02-10 (antibody, IgG1, V domains shown)
VH: B1 VH with S76T, N77S
VL: B1 VL with V3L, S22T, Y37F, A44S, L48W, I59V
notes: as for B1
binding result (recombinant human LAG-3): binds

B13: P13B02-09 (antibody, IgG1, V domains shown)
VH: B1 VH with S76T, N77S
VL: B1 VL with V3L, Y37F, L48W, I59V
notes: as for B1
binding result (recombinant human LAG-3): binds

B14: P13B02-37 (antibody, IgG1, V domains shown)
VH: B1 VH with L4M, V5K, K23T, R102K
VL: B1 VL with S71D, Y72F
notes: as for B1
binding result (recombinant human LAG-3): binds

B18: P13B02-04 (antibody, IgG1, V domains shown)
VH: B1 VH with I70M, A72R, S76T, N77S, T98R
VL: B1 VL with V3L, Y37F, L48W, I59V
notes: as for B1
binding result (recombinant human LAG-3): binds

B19: P13B02-05 (antibody, IgG1, V domains shown)
VH: B1 VH with I70M, A72R, S76T, N77S, T98R
VL: B1 VL with V3L, S22T, Y37F, A44S, L48W, I59V
notes: as for B1
binding result (recombinant human LAG-3): binds

B22: P13B02-02 (antibody, IgG1, V domains shown)
VH: B1 VH with I70M, A72R, S76T, N77S, T98R
VL: B1 VL
notes: as for B1
binding result (recombinant human LAG-3): binds

B23: P13B02-32 (antibody, IgG1, V domains shown)
VH: B1 VH with L4M, V5K, S76T, N77S, R102K
VL: B1 VL with S71D, Y72F
notes: as for B1
binding result (recombinant human LAG-3): binds

B24: P13B02-28 (antibody, IgG1, V domains shown)
VH: B1 VH with S76T, N77S, R102K
VL: B1 VL with S71D, Y72F
notes: as for B1
binding result (recombinant human LAG-3): binds

B25: P13B02-20 (antibody, IgG1, V domains shown)
VH: B1 VH with L4M, V5K, K23T
VL: B1 VL with V3L, S22T, Y37F, A44S, L48W, I59V
notes: as for B1
binding result (recombinant human LAG-3): binds

B27: P13B02-13 (antibody, IgG1, V domains shown)
VH: B1 VH
VL: B1 VL with V3L, Y37F
notes: as for B1
binding result (recombinant human LAG-3): binds

B28: P13B02-23 (antibody, IgG1, V domains shown)
VH: B1 VH with L4M, V5K, K12V, K23T, M48I, M81L, E82Q
VL: B1 VL with V3L, Y37F
notes: as for B1
binding result (recombinant human LAG-3): binds

Continued, values first:

binding result (recombinant human LAG-3): binds
B5: P13B02-24 (antibody, IgG1, V domains shown)
VH: B1 VH with L4M, V5K, K12V, K23T, M48I, M81L, E82Q
VL: B1 VL with V3L, Y37F, L48W, I59V
notes: as for B1

binding result (recombinant human LAG-3): binds
B7: P13B02-11 (antibody, IgG1, V domains shown)
VH: B1 VH
VL: B1 VL with S71D, Y72F
notes: as for B1

binding result (recombinant human LAG-3): binds
B8: P13B02-01 (antibody, IgG1, V domains shown)
VH: B1 VH with I70M, A72R, S76T, N77S, T98R
VL: B1 VL with S71D, Y72F
notes: as for B1

binding result (recombinant human LAG-3): binds
B9: P13B02-36 (antibody, IgG1, V domains shown)
VH: B1 VH with R102K
VL: B1 VL with S71D, Y72F
notes: as for B1

binding result (recombinant human LAG-3): binds
B10: P13B02-34 (antibody, IgG1, V domains shown)
VH: B1 VH with V5K, S76T, N77S, R102K
VL: B1 VL with S71D, Y72F
notes: as for B1

binding result (recombinant human LAG-3): binds
B12: P13B02-03 (antibody, IgG1, V domains shown)
VH: B1 VH with I70M, A72R, S76T, N77S, T98R
VL: B1 VL with V3L, Y37F
notes: as for B1

binding result (recombinant human LAG-3): binds
B15: P13B02-14 (antibody, IgG1, V domains shown)
VH: B1 VH
VL: B1 VL with V3L, Y37F, L48W, I59V
notes: as for B1

binding result (recombinant human LAG-3): binds
B16: P13B02-30 (antibody, V domains shown)
VH: B1 VH with L4M, S76T, N77S, R102K
VL: B1 VL with S71D, Y72F
notes: Humanized full length IgG1; made in three versions (G1m17; G1m17 N297A; G1m3 N297A)

binding result (recombinant human LAG-3): binds
B17: P13B02-18 (antibody, IgG1, V domains shown)
VH: B1 VH with L4M, V5K, K23T
VL: B1 VL with V3L, Y37F
notes: as for B1

binding result (recombinant human LAG-3): binds
B20: P13B02-33 (antibody, IgG1, V domains shown)
VH: B1 VH with L4M, V5K, K23T, S76T, N77S, R102K
VL: B1 VL with S71D, Y72F
notes: as for B1

binding result (recombinant human LAG-3): binds
B21: P13B02-19 (antibody, IgG1, V domains shown)
VH: B1 VH with L4M, V5K, K23T
VL: B1 VL with V3L, Y37F, L48W, I59V
notes: as for B1

binding result (recombinant human LAG-3): binds
B26: P13B02-15 (antibody, IgG1, V domains shown)
VH: B1 VH
VL: B1 VL with V3L, S22T, Y37F, A44S, L48W, I59V
notes: as for B1

binding result (recombinant human LAG-3): binds
B29: P13B02-35 (antibody, IgG1, V domains shown)
VH: B1 VH with V5K, K23T, S76T, N77S, R102K
VL: B1 VL with S71D, Y72F
notes: as for B1

binding result (recombinant human LAG-3): binds
B30: P13B02-31 (antibody, IgG1, V domains shown)
VH: B1 VH with L4M, K23T, S76T, N77S, R102K
VL: B1 VL with S71D, Y72F
notes: as for B1

binding result (recombinant human LAG-3): binds
B31: P13B02-22 (antibody, IgG1, V domains shown)
VH: B1 VH with L4M, V5K, K12V, K23T, M48I, M81L, E82Q
VL: B1 VL
notes: as for B1

binding result (human LAG-3): binds
B32: P05E03 Fab (Fab, V domains shown)
VH: QVQLKESGAELVKPGASVELSCTASGFNIRDTYMYWVKQRPEQGLEWIGRIDPANGNTKFDPKFQDRATMTADTSSNTAYLQLSSLTSEDTAVYYCTTYFYRYDVGGFDYWGQGTTLTVS
VL: EIVLTQSPALMAASPGEKVTITCSVSSSISSSNLHWYQQKSGTSPKLWIYGTSNLASGVPVRFSGSGSGTSYSLTISSMEAEDAATYYCQQWSSYPFTFGSGTKLEIK
notes: Murine Fab, periplasmic extract

binding result (human LAG-3): binds
B33: P05E01 Fab (Fab, V domains shown)
VH: DVQLVESGAELVKPGASVKLSCTASGFTIKDTYIHWVKQRPEQGLEWIGEIDPANGNTKYDPKFQGKATITADTSSNTAYLQLSSLTSEDTAVYYCATYYYRYDVGGFDYWGQGTTLTVS
VL: B32 VL with E1D, Y37F, S78N, S93N, F97L, S101A, I107L
notes: as for B32
